Assay results taken from patent US20250276092A1 (Regeneron, published 2025).

T1: mouse CD40 extracellular domain expressed with a C-terminal myc-myc-hexahistidine tag (mouse)
T1 construct: also called mCD40-MMH; REGN3098
T1 chain: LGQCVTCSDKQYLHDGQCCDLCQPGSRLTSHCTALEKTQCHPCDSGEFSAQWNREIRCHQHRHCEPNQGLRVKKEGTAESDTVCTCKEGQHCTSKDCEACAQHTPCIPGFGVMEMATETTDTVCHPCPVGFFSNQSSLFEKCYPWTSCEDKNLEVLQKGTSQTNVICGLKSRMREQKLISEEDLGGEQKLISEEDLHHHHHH

T2: monkey CD40 extracellular domain expressed with a C-terminal myc-myc-hexahistidine tag (monkey)
T2 construct: also called mfCD40-MMH; REGN3097
T2 chain: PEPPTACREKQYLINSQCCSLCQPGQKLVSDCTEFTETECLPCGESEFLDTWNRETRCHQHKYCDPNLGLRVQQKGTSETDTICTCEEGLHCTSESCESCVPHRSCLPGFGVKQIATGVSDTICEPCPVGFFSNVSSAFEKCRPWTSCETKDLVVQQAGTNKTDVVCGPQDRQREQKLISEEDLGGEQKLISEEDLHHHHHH

B1: REGN16432 (bispecific antibody, human IgG4 S228P, kappa)
heavy 1: EVQLVESGGGLVQPGGSLRLSCAASGFTFSSYAMNWVRQAPGKGLEWVSIISGTIGKTYYADSVKGRFTISRDNSKNTLYLQMNSLRGEDTAVYYCAKDTERDITGSPFDYWGQGTLVTVSSASTKGPSVFPLAPCSRSTSESTAALGCLVKDYFPEPVTVSWNSGALTSGVHTFPAVLQSSGLYSLSSVVTVPSSSLGTKTYTCNVDHKPSNTKVDKRVESKYGPPCPPCPAPPVAGPSVFLFPPKPKDTLMISRTPEVTCVVVDVSQEDPEVQFNWYVDGVEVHNAKTKPREEQFNSTYRVVSVLTVLHQDWLNGKEYKCKVSNKGLPSSIEKTISKAKGQPREPQVYTLPPSQEEMTKNQVSLTCLVKGFYPSDIAVEWESNGQPENNYKTTPPVLDSDGSFFLYSRLTVDKSRWQEGNVFSCSVMHEALHNHYTQKSLSLSLGK
heavy 2: EVQLVESGGGLVQPGGSLRLSCAASGFTFGSYGMAWVRQAPGKGLEWVSAISGSGDYTNYADSVKRRFTISRDNSKNTLYLQMSSLRAEDTAVYYCAKEKTGTTGYLYSGMDVWGQGTTVTVSSASTKGPSVFPLAPCSRSTSESTAALGCLVKDYFPEPVTVSWNSGALTSGVHTFPAVLQSSGLYSLSSVVTVPSSSLGTKTYTCNVDHKPSNTKVDKRVESKYGPPCPPCPAPPVAGPSVFLFPPKPKDTLMISRTPEVTCVVVDVSQEDPEVQFNWYVDGVEVHNAKTKPREEQFNSTYRVVSVLTVLHQDWLNGKEYKCKVSNKGLPSSIEKTISKAKGQPREPQVYTLPPSQEEMTKNQVSLTCLVKGFYPSDIAVEWESNGQPENNYKTTPPVLDSDGSFFLYSRLTVDKSRWQEGNVFSCSVMHEALHNRFTQKSLSLSPGK
light: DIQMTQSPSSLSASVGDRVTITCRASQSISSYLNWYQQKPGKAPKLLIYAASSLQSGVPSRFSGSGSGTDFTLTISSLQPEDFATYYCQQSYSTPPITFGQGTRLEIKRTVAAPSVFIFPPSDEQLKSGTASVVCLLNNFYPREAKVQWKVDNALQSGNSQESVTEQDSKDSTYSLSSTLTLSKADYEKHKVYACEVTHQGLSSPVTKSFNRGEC
B2: 30027P2 (antibody, human IgG4 S228P, kappa, V domains shown)
VH: EVQLVESGGGLVQPGGSLRLSCAASGFTFSSYAMNWVRQAPGKGLEWVSIISGTIGKTYYADSVKGRFTISRDNSKNTLYLQMNSLRGEDTAVYYCAKDTERDITGSPFDYWGQGTLVTVSS
VL: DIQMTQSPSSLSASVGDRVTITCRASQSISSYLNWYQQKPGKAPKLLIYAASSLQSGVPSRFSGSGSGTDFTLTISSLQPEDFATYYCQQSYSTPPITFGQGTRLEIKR
notes: Parental bivalent anti-CD40 mAb; also called H4sH30027P2
B3: 21520P2 (antibody, human IgG4 S228P, kappa, V domains shown)
VH: EVQLVESGGGLVQPGGSLRLSCAASGFTFGSYGMAWVRQAPGKGLEWVSAISGSGDYTNYADSVKRRFTISRDNSKNTLYLQMSSLRAEDTAVYYCAKEKTGTTGYLYSGMDVWGQGTTVTVSS
VL: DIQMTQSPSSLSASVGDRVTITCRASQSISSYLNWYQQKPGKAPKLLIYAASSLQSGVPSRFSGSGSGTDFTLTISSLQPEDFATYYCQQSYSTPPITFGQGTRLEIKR
notes: Parental bivalent anti-CD40 mAb; also called H4sH21520P2

Key:
[1] = molecular target: T3, human CD40 expressed on cells (human, UniProt P25942 21-277); assay: cell-based or functional assay
[2] = molecular target: T3, human CD40 expressed on cells; assay: cell-based or functional assay; remark: listed apart in the source
[3] = molecular target: T3, human CD40 expressed on cells; assay: cell-based or functional assay; remark: listed apart in the source
[4] = molecular target: T4, human CD40 extracellular domain expressed with a C-terminal myc-myc-hexahistidine tag (human); assay: SPR 25C, captured mAb
T4 construct: also called hCD40-MMH; hCD40-mmH
Experimental: (§1) The equilibrium dissociation constants (KD) for anti-CD40 bivalent and bispecific monoclonal antibodies (mAbs) were determined using a real-time surface plasmon resonance (SPR)-based Biacore 4000 biosensor. All binding studies were performed in 10 mM HEPES, 150 mM NaCl, 3 mM EDTA, and 0.05% v/v surfactant Tween-20, pH 7.4 (HBS-ET) running buffer at 25° C. and 37° C. The Biacore CM5 sensor surface was first derivatized by amine coupling with a monoclonal mouse anti-human Fc antibody (REGN2567) to capture anti-CD40 bivalent parental and anti-CD40×CD40 bispecific antibodies. Different concentrations of CD40 reagents, human CD40 extracellular domain expressed with a C-terminal myc-myc-hexahistidine tag (“hCD40-MMH”; REGN3094; SEQ ID NO: 53), monkey CD40 extracellular domain expressed with a C-terminal myc-myc-hexahistidine tag (“mfCD40-MMH”; REGN3097; SEQ ID NO: 54), and mouse CD40 extracellular domain expressed with a C-terminal myc-myc-hexahistidine tag (“mCD40-MMH”; REGN3098; SEQ ID NO: 55), at concentrations ranging from 3.7 nM to 100 nM or 3.3 nM to 90 nM in a series of 3-fold dilutions prepared in HBS-ET running buffer were injected at a flow rate of […] for 4 minutes or […] for 5 minutes. The dissociation of different CD40 reagents bound to anti-CD40 bivalent parental and anti-CD40×CD40 bispecific antibodies was monitored for 10 minutes in HBS-ET running buffer. At the end of each cycle, the anti-CD40 bivalent parental and anti-CD40×CD40 bispecific antibodies capture surface was regenerated using a 12 sec injection of 20 mM H₃PO₄.
(§2) The association rate (ka) and dissociation rate (kd) were determined by fitting the real-time binding sensorgrams to a 1:1 binding model with mass transport limitation using Scrubber 2.0c curve-fitting software. Binding dissociation equilibrium constant (KD) and dissociative half-life (t½) were calculated from the kinetic rates as: KD (M)=kd/kₐ, and t_{1/2} (min)=[ln(2)/(60*kd)].

[5] = molecular target: T3, human CD40 expressed on cells; assay: cell-based or functional assay; remark: listed apart in the source
[6] = molecular target: T4, human CD40 extracellular domain …; assay: ELISA, blocks 40 nM hCD40-mmH binding to coated 9His-hCD40L
Experimental: In the blocking assay, 9His-hCD40L was passively absorbed at a concentration of 5 μg/mL in PBS on a 96-well microtiter plate overnight at 4° C. […] In a separate 96-well microtiter plate, a fixed amount of 40 nM hCD40-mmH was pre-mixed with one of the following antibodies, at concentrations ranging from 977 pM to 1 μM in PBS+0.5% BSA: (1) anti-CD40×CD40 bispecific antibodies (REGN16431, REGN16432, REGN16634, and REGN16335); (2) parental anti-CD40 mAbs (bivalent antibodies comprising 2 fragment antigen-binding [Fab] arms identical to one of anti-CD40 Fab of anti-CD40×CD40 antibodies); (3) anti-CD40×Irrelevant antibodies (bivalent antibodies that incorporate one Fab arm identical to one of anti-CD40 Fab of anti-CD40×CD40 antibodies and another Fab arm specific to an irrelevant antigen); and (4) human IgG4 with Fc mutation isotype control antibodies (REGN7540 and REGN4513). The fixed concentration of hCD40-mmH was selected to be near the concentration (EC₅₀ value) that generated 50% of the maximal binding to the plate-adhered 9His-hCD40L. After one-hour incubation, the antibody-antigen complexes were transferred to the microtiter plate coated with 9His-hCD40L. After one hour incubation at room temperature, the plates were washed, and plate-bound hCD40-mmH protein was detected with horseradish peroxidase (HRP) conjugated goat anti-c-Myc antibody. The plates were then developed using TMB substrate solution (BD Biosciences) according to the manufacturer's recommended procedure and the absorbance at 450 nm (OD₄₅₀) was measured on a SpectraMax i3× plate reader.
Binding data were analyzed using a sigmoidal (four-parameter logistic) dose-response model with GraphPad Prism™ software. […] The percent blocking of tested antibodies at the highest tested concentration ([…]) was calculated based on the formula shown below: […]

[7] = molecular target: T4, human CD40 extracellular domain …; assay: SPR 37C, captured mAb
Experimental: as §1, §2

[8] = molecular target: T3, human CD40 expressed on cells; assay: cell-based or functional assay; remark: listed apart in the source
[9] = molecular target: T3, human CD40 expressed on cells; assay: cell-based or functional assay; remark: listed apart in the source
[10] = molecular target: T1, mouse CD40 extracellular domain …; assay: SPR 25C, captured mAb
Experimental: as §1, §2

[11] = molecular target: T2, monkey CD40 extracellular domain …; assay: SPR 25C, captured mAb
Experimental: as §1, §2

[12] = molecular target: T1, mouse CD40 extracellular domain …; assay: SPR 37C, captured mAb
Experimental: as §1, §2

T3 sequence (P25942 21-277): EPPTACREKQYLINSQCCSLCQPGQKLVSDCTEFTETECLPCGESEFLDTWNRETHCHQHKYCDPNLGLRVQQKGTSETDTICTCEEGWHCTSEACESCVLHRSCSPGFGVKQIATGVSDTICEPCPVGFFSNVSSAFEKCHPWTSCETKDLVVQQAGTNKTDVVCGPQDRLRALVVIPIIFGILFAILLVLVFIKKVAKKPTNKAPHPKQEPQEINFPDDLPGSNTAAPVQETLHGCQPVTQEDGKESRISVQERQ

| Binder | IC50, NFkB-luc THP-1, 10 nM hCD40L [2] [nM] | Max % activation, NFkB-luc THP-1, no ligand [2] [%] | Max % inhibition, NFkB-luc THP-1, 10 nM hCD40L [2] [%] | 100 nM Ag Bound (RU) [4] [RU] | Max % activation, NFkB-luc Ramos, no ligand [5] [%] | Max % inhibition, NFkB-luc Ramos, 500 pM hCD40L [5] [%] | % Blocking at highest mAb concentration [6] [%] | 100 nM Ag Bound (RU) [7] [RU] | IC50, NFkB-luc Raji, 900 pM hCD40L [8] [M] | Max % activation, NFkB-luc Raji, no ligand [8] [%] | Max % inhibition, NFkB-luc Raji, 900 pM hCD40L [8] [%] | 100 nM Ag Bound (RU) [10] [RU] | 100 nM Ag Bound (RU) [11] [RU] | 100 nM Ag Bound (RU) [12] [RU] | also measured |
| --- | --- | --- | --- | --- | --- | --- | --- | --- | --- | --- | --- | --- | --- | --- | --- |
| B1 | 0.148 | 6 | 97 | 56.6 | 4 | 94 | 95 | 56.6 | 1.02e-10 | 5 | 68 | – | – | – | % max blockade relative to no mAb, IL-10, B cells, donor 1 [1]: 81.5%; % max blockade relative to no mAb, IL-10, B cells, donor 2 [1]: 94.5%; % max blockade relative to no mAb, IL-10, B cells, donor 3 [1]: 90.6%; % max blockade relative to no mAb, TNFa, B cells, donor 1 [3]: 53.5%; % max blockade relative to no mAb, TNFa, B cells, donor 2 [3]: 68.4%; % max blockade relative to no mAb, TNFa, B cells, donor 3 [3]: 69.1%; IC50, NFkB-luc Ramos, 500 pM hCD40L [5]: 4.92e-11 M; % max blockade relative to no mAb, IL-6, B cells, donor 1 [9]: 83.5%; % max blockade relative to no mAb, IL-6, B cells, donor 2 [9]: 92%; % max blockade relative to no mAb, IL-6, B cells, donor 3 [9]: 92% |
| B2 | – | 2 | -61 | 62 | 8 | -130 | – | 66.5 | 8.95e-12 | 9 | 67 | 0.2 | 63.1 | 0.2 | EC50 in the presence of CD40L (potentiation), NFkB-luc THP-1, 10 nM hCD40L [2]: 0.00251 nM; EC50 in the presence of CD40L (potentiation), NFkB-luc Ramos, 500 pM hCD40L [5]: 8.14e-12 M |
| B3 | 0.437 | 1 | 97 | 76.6 | 49 | 63 | 94 | 67.2 | 7.7e-11 | 25 | 81 | -0.5 | 10.1 | 0.2 | EC50, NFkB-luc Ramos, no ligand [5]: > 10 nM; IC50 (three highest concentrations excluded, hook effect), NFkB-luc Ramos, 500 pM hCD40L [5]: 8.06e-11 M; EC50, NFkB-luc Raji, no ligand [8]: > 100 nM |
